Results on 15 compounds are retold here after patent US20240024520A1, “AUTONOMOUS KNOB DOMAIN PEPTIDES” (UCB BIOPHARMA SRL, priority 2020, published 2024).

By Kd is commonly meant the concentration at which binding is half-saturated. A high value points to weaker binding. What is called koff is the rate constant with which the complex falls apart.

Bridge positions count the residues as written; N and C are the ends. Peptide text beside a SMILES is read from it.

Assay type in all cases: binding
The target in one assay is rat C5 protein (Rattus norvegicus, UniProt P08650). Nature of the assay: Monoclonal phage screening ELISA, rat C5. How it is done: (§1) For the C5 libraries, a single round of enrichment was performed with either human or rat C5 protein. […] Phage were blocked for 30 minutes. Biotinylated antigen was added to the blocked phage at a concentration of 100 nM and incubated at room temperature with mixing.
(§2) Colonies were picked into a 96-well culture plate containing selective medium 2TY supplemented with 1% Glucose and 100 μg/ml Carbenicillin and was incubated at 37° C. until wells reached mid-log phase of growth prior to addition of M13K07 helper phage. The block was incubated without shaking for 1 hour to achieve infection and phage production using continued culture in selective media supplemented with 50 μg/ml Kanamycin and 100 μg/ml Carbenicillin.
[…] Negative control plate and Anti-myc tag plate were also prepared.
(§3) Monoclonal phage rescue supernatants were blocked with an equal volume of a 2% milk (w/v) in PBS, for serum albumin proteins, or 2% BSA and 2% milk (w/v) in PBS solution. The coating solution was removed from coated Nunc plates and each plate was blocked with 1% BSA in PBS (for C5 libraries) or 1% milk powder (for albumin library). Both phage and Nunc plates were blocked for 1 hour at room temperature. Nunc plates were washed using a 96-well microplate washer (BioTek) with a PBS solution contain 0.1% Tween20 (Sigma Aldrich). 100 of blocked phage solution was added to each well of Nunc MaxiSorp plate and left shaking at room temperature for 1 hour. Plates were washed and dried as previously described. 100 of an Anti-M13-Horse radish peroxidase conjugated antibody (GE Healthcare) diluted (1:5,000) in a 1% BSA or milk solution was added to each well and left shaking at room temperature for 1 hour. Plates were washed again and 50 μL of TMB solution (Merck Millipore) was added to each well. Plates were left shaking for 10 minutes. Absorbance was measured at 630 nm and 490 nm. Binding signals were obtained where Absorbance at 630 nm was >3-times the signal upon irrelevant antigen.
(§4) By monoclonal phage ELISA the following ultralong CDR-H3 sequences were identified as binders (OD>0.2 AU): […]

Assay [1] concerns the target T1, C5 (Homo sapiens, UniProt P01031). Nature of the assay: Monoclonal phage screening ELISA, human C5. How it is done:
as §1, §2
Binding to antigen was assessed by monoclonal phage ELISA, 96-well flat bottom Nunc MaxiSorp plates (Thermofisher) were coated with a 2.5 μg/ml solution of human, mouse, or rat serum albumin, human C5 or mouse C5 diluted with PBS, and left overnight at 4° C. Negative control plate and Anti-myc tag plate were also prepared.
as §3, §4

Assay [2] has as its target T1, C5. The assay can be described thus: Biacore (SPR) single-cycle kinetics on immobilised C5. Conditions: for kd: chemically derived knob domain peptides, n = 1; for kon: read-out: ka. How it is done:
Binding to C5 was measured using surface plasmon resonance (SPR) single-cycle kinetics as described below.
Biacore single-cycle kinetics. Using a Biacore 8K (GE Healthcare), C5 was immobilized on a CM5 chip by amine coupling. Flow cells were activated using EDC/NHS (flow rate, 10 μL/min; contact time, 30 s). C5, at 1 μg/mL in pH 4.5 Sodium-acetate buffer, was immobilized on flow cell two only (flow rate, 10 μL/min; contact time, 420 s). Finally, ethanolamine was applied to both flow cells (flow rate, 10 μL/min; contact time, 420 s). A final immobilization level of approximately 2,000 response units was obtained.
Single-cycle kinetics were measured using titrations in HBS-EP buffer. A high flow rate of 40 μL/min was used, with a contact time of 230 s and a dissociation time of 900 s. Binding to the reference surface was subtracted, and the data were fitted to a single-site binding model using Biacore evaluation software.
We measured individual rate constants (kon and koff) and equilibrium dissociation constants (KD) for knob domain peptides binding to C5 by the Biacore single-cycle kinetics method described above.
We used SPR single cycle kinetics to measure binding to human C5 protein.
(In SPR one partner is held on a chip, and binding of the other changes the refractive index at the surface.)

In assay [3] the target is T1, C5. Nature of the assay: Biacore multi-cycle kinetics on human C5. Conditions: for mean stoichiometric ratio: measured Rmax divided by theoretical Rmax, n = 3 experiments; for koff: read-out: mean Koff, multi-cycle kinetics, n = 3 experiments; for kon: read-out: mean Kon, multi-cycle kinetics, n = 3 experiments. The procedure:
Binding of knob domain peptides to human C5 was measured by SPR, using a multi-cycle kinetics method as follows:
Kinetics were measured using a Biacore 8K (GE Healthcare) with a CM5 chip, which was prepared as follows: EDC/NHS was mixed at 1:1 ratio (flow rate, 10 μL/min; contact time, 30 seconds), human C5 protein at 1 μg/mL in pH 4.5 sodium-acetate buffer, were injected over flow cell one only (flow rate, 10 μL/min; contact time, 60 seconds). Final immobilization levels in the range of 2000-3000 response units (RU) were obtained, to yield theoretical Rmax values of ˜50-60 RU. Serial dilutions of peptide were prepared in HBS-EP buffer and injected (flow rate, 30 μL/min; contact time, 240 seconds; dissociation time, 6000 seconds). After each injection, the surface was regenerated with two sequential injections of 2M MgCl2 (flow rate, […]; contact time, 30 seconds). Binding to the reference surface was subtracted, and the data were fitted to a single site binding model, using Biacore evaluation software.

[4] abbreviates: anti-C5 ultralong CDR-H3, binder = OD>0.2 AU.
Setting [5] is: knob domain of the anti-C5 ultralong CDR-H3.

T1 sequence (P01031 19-1676): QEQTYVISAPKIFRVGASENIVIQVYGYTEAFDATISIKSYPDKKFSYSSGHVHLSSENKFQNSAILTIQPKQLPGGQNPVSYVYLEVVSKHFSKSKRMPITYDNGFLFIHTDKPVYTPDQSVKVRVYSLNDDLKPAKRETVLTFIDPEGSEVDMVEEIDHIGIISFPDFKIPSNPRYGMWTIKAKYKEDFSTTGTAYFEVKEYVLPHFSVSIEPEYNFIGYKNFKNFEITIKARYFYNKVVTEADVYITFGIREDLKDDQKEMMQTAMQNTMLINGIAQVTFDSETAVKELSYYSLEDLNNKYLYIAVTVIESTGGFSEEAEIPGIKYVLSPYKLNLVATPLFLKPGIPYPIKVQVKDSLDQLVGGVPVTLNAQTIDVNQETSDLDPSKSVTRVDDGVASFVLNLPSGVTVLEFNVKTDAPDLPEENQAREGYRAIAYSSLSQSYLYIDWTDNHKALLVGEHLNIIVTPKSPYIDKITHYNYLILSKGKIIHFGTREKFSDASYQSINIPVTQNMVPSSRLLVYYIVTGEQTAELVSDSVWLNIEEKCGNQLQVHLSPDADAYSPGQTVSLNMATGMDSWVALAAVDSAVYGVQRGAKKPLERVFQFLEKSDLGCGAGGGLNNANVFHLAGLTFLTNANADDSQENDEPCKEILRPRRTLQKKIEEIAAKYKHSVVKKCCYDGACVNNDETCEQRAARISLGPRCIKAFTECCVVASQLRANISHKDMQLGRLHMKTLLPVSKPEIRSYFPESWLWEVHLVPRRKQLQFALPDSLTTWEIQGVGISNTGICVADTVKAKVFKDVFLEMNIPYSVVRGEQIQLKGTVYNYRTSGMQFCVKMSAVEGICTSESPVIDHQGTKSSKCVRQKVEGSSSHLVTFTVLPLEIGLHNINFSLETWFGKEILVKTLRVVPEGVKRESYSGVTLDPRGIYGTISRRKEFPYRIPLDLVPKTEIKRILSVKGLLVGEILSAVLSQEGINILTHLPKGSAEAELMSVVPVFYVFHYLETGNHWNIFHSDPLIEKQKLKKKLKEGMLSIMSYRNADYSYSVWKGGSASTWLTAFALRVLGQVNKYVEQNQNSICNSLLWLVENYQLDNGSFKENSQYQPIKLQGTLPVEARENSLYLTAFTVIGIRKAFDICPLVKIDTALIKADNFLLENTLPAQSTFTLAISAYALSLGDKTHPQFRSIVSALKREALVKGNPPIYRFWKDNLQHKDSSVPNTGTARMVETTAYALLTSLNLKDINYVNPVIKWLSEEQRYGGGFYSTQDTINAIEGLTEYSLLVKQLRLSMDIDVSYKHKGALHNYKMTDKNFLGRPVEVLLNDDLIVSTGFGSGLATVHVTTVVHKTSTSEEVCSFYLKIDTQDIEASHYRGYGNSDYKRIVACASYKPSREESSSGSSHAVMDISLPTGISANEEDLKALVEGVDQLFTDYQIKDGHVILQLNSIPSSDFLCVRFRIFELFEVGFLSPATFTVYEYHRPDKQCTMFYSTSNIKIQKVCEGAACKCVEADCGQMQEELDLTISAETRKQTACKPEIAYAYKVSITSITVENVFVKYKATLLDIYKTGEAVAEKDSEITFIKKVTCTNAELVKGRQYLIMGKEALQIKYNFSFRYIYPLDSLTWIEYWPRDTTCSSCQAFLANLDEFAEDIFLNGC
rat C5 protein, sequence (P08650 19-674 limits assumed): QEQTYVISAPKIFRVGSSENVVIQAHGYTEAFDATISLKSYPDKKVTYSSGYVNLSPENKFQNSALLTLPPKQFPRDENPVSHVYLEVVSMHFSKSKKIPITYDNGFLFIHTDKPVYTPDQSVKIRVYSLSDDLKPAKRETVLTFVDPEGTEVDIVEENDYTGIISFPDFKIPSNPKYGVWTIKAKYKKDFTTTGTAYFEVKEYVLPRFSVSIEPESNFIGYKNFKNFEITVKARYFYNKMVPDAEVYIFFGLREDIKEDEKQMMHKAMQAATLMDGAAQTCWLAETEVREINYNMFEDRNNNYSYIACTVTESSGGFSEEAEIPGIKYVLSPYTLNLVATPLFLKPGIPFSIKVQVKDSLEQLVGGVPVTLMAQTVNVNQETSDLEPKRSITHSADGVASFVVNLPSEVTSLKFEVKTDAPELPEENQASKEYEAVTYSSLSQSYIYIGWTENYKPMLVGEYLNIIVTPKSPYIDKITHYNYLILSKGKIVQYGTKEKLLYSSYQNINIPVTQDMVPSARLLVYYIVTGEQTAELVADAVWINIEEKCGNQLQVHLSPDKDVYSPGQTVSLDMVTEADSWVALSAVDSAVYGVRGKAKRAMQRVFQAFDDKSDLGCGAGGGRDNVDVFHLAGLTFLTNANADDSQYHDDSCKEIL
rat C5 protein, sequence (P08650 679-1681 limits assumed): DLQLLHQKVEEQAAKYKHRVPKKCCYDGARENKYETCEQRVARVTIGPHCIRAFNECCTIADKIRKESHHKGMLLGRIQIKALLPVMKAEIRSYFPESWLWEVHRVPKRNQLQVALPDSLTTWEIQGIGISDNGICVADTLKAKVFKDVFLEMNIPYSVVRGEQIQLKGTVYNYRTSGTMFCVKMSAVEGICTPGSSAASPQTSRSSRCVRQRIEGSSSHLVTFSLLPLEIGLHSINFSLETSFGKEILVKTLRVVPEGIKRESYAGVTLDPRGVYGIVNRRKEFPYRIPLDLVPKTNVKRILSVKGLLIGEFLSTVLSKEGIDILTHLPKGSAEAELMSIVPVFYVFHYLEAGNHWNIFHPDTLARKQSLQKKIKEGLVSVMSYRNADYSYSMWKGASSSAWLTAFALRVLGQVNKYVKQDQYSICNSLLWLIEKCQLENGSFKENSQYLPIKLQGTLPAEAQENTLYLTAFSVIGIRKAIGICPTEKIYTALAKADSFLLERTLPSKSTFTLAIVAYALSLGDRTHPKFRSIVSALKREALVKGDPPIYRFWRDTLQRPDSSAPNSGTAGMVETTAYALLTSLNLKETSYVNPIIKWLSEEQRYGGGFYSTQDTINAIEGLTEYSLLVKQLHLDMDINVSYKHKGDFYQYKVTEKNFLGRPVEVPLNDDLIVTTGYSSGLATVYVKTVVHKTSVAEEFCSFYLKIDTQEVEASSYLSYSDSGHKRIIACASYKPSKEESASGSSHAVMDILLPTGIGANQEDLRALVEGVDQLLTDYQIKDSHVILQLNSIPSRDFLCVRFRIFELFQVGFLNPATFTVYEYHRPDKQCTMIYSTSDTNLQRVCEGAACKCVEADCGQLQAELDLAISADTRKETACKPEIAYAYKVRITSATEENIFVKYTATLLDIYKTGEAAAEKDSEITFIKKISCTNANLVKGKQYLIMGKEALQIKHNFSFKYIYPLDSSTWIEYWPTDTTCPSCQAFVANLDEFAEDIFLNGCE

Consider “551 (TTVHQRTKKTCPLGYDLNYRCDHFNTCRVEECCKNGVVNAYGICEYAGGSATYTYEWYVD; Anti-C5 ultralong CDR-H3) [compound 551]”, for which the Specificity entry with rat C5 protein (setting [4]) is “Human and Rat”; in the assay with C5 [1] (setting [4]), “Human and Rat”.

Regarding “552 (TTVHQRTKEERTCPSGCSWFSGCWDTYRCGPSVCCRDGRYGCAAIICRDTYEWYVD; Anti-C5 ultralong CDR-H3) [compound 552]”, the Specificity entry with rat C5 protein (setting [4]) is “Human and Rat”; with C5 [1] (setting [4]) it was “Human and Rat”.

Take “553 (TTVHQKTKKTCPRGYHYNDRCEFFNTCRVEECCLNGVVNTYGICEYEGGSATYTYEWYVD; Anti-C5 ultralong CDR-H3) [compound 553]”: the Specificity result with rat C5 protein (setting [4]) is “Human and Rat”; with C5 [1] (setting [4]), “Human and Rat”.

In the case of “554 (TTVHQKTKKTCPRGYHYNDRCDFFNTCRVEECCLNGVVNTYGICEYEGGSATYTYEWYVD; Anti-C5 ultralong CDR-H3) [compound 554]”, the Specificity result in the assay with rat C5 protein (setting [4]) was “Human and Rat”; in the assay with C5 [1] (setting [4]), “Human and Rat”.

For the compound “555 (TTVHQKTKKTCPRGYHYNDRCEFFNTCRVEECCLNGVVNTYGICEYEGGSATYTYEWYVD; Anti-C5 ultralong CDR-H3) [compound 555]”, the Specificity entry is “Human and Rat” with rat C5 protein (setting [4]); “Human and Rat” with C5 [1] (setting [4]).

For the compound “557 (TTVHLKTKKSCPLGYAINDRCDDLKTCGPDECCLNGVVNAYGICEYEGESATHTYEWYVD; Anti-C5 ultralong CDR-H3) [compound 557]”, the Specificity entry with rat C5 protein (setting [4]) was “Human and Rat”; in the assay with C5 [1] (setting [4]), “Human and Rat”.

For the compound “558 (TTVHQKTKKSCPLGYAINDRCDDLKTCGPDECCLNGVVNAYGICEYEGESATHTYELYVE; Anti-C5 ultralong CDR-H3) [compound 558]”, the Specificity entry with rat C5 protein (setting [4]) was “Human and Rat”; in the assay with C5 [1] (setting [4]), “Human and Rat”.

In the case of “594 (TCPLGYDLNYRCDHFNTCRVEECCKNGVVNAYGICEYAGGSAT; Anti-C5 ultralong CDR-H3 knob domain) [compound 594]”, the Specificity result in the assay with rat C5 protein (setting [5]) was “Human and Rat”; in the assay with C5 [1] (setting [5]), “Human and Rat”.

For “595 (TCPSGCSWFSGCWDTYRCGPSVCCRDGRYGCAAIICRDT; Anti-C5 ultralong CDR-H3 knob domain) [compound 595]”, the Specificity entry in the assay with rat C5 protein (setting [5]) was “Human and Rat”; with C5 [1] (setting [5]), “Human and Rat”.

As for “596 (TCPRGYHYNDRCEFFNTCRVEECCLNGVVNTYGICEYEGGSAT; Anti-C5 ultralong CDR-H3 knob domain) [compound 596]”, the Specificity entry with rat C5 protein (setting [5]) is “Human and Rat”; with C5 [1] (setting [5]), “Human and Rat”.

For the compound “597 (TCPRGYHYNDRCDFFNTCRVEECCLNGVVNTYGICEYEGGSAT; Anti-C5 ultralong CDR-H3 knob domain) [compound 597]”, the Specificity result is “Human and Rat” with rat C5 protein (setting [5]); “Human and Rat” with C5 [1] (setting [5]).

For “598 (SCPDGYGYGDGYCYDSGCSASDCYGVDALYSYGHCGCSIYTERPR; Anti-C5 ultralong CDR-H3 knob domain) [compound 598]”, the Specificity result in the assay with rat C5 protein (setting [5]) was “Human and Rat”; in the assay with C5 [1] (setting [5]), “Human and Rat”.

With “599 (SCPLGYAINDRCDDLKTCGPDECCLNGVVNAYGICEYEGESAT; Anti-C5 ultralong CDR-H3 knob domain) [compound 599]”, the Specificity result with rat C5 protein (setting [5]) was “Human and Rat”; with C5 [1] (setting [5]), “Human and Rat”.

`CSCC[C@@H]1NC(=O)[C@@H]2CCCN2C(=O)[C@@H](NC(=O)[C@@H]2CSSC[C@H](NC(=O)[C@@H](N)CO)C(=O)N3CCC[C@H]3C(=O)N[C@@H](CC(=O)O)C(=O)NCC(=O)N[C@@H](Cc3ccccc3)C(=O)N[C@@H](CO)C(=O)N[C@@H](Cc3ccc(O)cc3)C(=O)N[C@@H](CCCNC(=N)N)C(=O)N[C@@H](CO)C(=O)N[C@@H](Cc3c[nH]c4ccccc34)C(=O)N[C@@H](CC(=O)O)C(=O)N[C@@H](CC(=O)O)C(=O)N[C@@H](Cc3ccccc3)C(=O)N2)CSSC[C@@H](C(=O)N[C@@H](CC(C)C)C(=O)N[C@@H](C)C(=O)N2CCC[C@H]2C(=O)N[C@@H](CCCNC(=N)N)C(=O)N[C@@H](CC(N)=O)C(=O)O)NC(=O)[C@H](CCCNC(=N)N)NC(=O)CNC(=O)[C@H](C(C)C)NC1=O` (H-SCPDGFSYRSWDDFCCPMVGRCLAPRN-OH; disulfide 2-15, 16-22; N-terminus assumed): at C5 [2], the dissociation constant Kd came out at 6.17 nM, the kd was 0.00723 s⁻¹ and the kon is 1.17e+06 M⁻¹ s⁻¹. Moreover, at C5 [2] (site directed disulphide forms of K149), the “fold more potent than K149B” value is reported as 41 fold. On C5 [3], binding was put at a Kd of 7.31 nM, the koff was found to be 0.00484 s⁻¹ and the kon turned out to be 713000 M⁻¹ s⁻¹. The mean stoichiometric ratio on C5 [3] (listed as K149chemSD-A) is recorded as 0.82.

For the compound `CSCC[C@@H]1NC(=O)[C@@H]2CCCN2C(=O)[C@@H]2CSSC[C@H](NC(=O)[C@@H](N)CO)C(=O)N3CCC[C@H]3C(=O)N[C@@H](CC(=O)O)C(=O)NCC(=O)N[C@@H](Cc3ccccc3)C(=O)N[C@@H](CO)C(=O)N[C@@H](Cc3ccc(O)cc3)C(=O)N[C@@H](CCCNC(=N)N)C(=O)N[C@@H](CO)C(=O)N[C@@H](Cc3c[nH]c4ccccc34)C(=O)N[C@@H](CC(=O)O)C(=O)N[C@@H](CC(=O)O)C(=O)N[C@@H](Cc3ccccc3)C(=O)N[C@@H](CSSC[C@@H](C(=O)N[C@@H](CC(C)C)C(=O)N[C@@H](C)C(=O)N3CCC[C@H]3C(=O)N[C@@H](CCCNC(=N)N)C(=O)N[C@@H](CC(N)=O)C(=O)O)NC(=O)[C@H](CCCNC(=N)N)NC(=O)CNC(=O)[C@H](C(C)C)NC1=O)C(=O)N2` [K149B] (H-SCPDGFSYRSWDDFCCPMVGRCLAPRN-OH; disulfide 2-16, 15-22; N-terminus assumed), on C5 [2], the affinity, expressed as Kd, was 246 nM; the kd came to 0.00732 s⁻¹; the kon stood at 29700 M⁻¹ s⁻¹. On C5 [3], binding was characterised by a dissociation constant (Kd) of 269 nM, the “fold lower affinity (relative to K149chemSD-A)” value is given as “approximately 35 fold”, the mean stoichiometric ratio was determined as 0.81 and the koff turned out to be 0.00417 s⁻¹. In addition, on C5 [3], the kon was found to be 15600 M⁻¹ s⁻¹.
